Experiments:
human CD47 on cells [1] = molecular target: T1, human CD47 on cells (human, UniProt Q08722 19-323); experiment: blocking of human SIRPα binding to Raji cells, SIRPα at saturating concentration, secondary antibody detection; competitor SIRPα (repeated in paragraph 145 as average EC50); Raji cells (CD20+/CD47+); blocking of SIRPα binding
T1 construct: whole, on cells; also called cell surface CD47; CD47 on Raji, OCI-Ly3, Fadu cells, human RBCs, platelets and blood cells

[2] = molecular target: recombinant human fragment crystallizable gamma receptor (FcγR) family members tested; experiment: recombinant human FcγR proteins; method not stated
human CD47 on cells [3] = molecular target: T1, human CD47 on cells; experiment: blocking of human SIRPα binding to OCI-Ly3 cells, SIRPα at saturating concentration, secondary antibody detection; competitor SIRPα (repeated in paragraph 145 as average EC50); OCI-Ly3 cells (CD20+/CD47+); blocking of SIRPα binding
[4] = molecular target: FcγR3A (V176) recombinant protein (human, UniProt P08637 17-208); experiment: recombinant protein, compared with control anti-RSV IgG1 antibody (p value 0.0049)
[5] = molecular target: T2, FcγR2A (H131) recombinant protein (human, UniProt P12318 34-217); experiment: recombinant protein, compared with control anti-RSV IgG1 antibody (p value 0.0038)
T2 sequence (looked up): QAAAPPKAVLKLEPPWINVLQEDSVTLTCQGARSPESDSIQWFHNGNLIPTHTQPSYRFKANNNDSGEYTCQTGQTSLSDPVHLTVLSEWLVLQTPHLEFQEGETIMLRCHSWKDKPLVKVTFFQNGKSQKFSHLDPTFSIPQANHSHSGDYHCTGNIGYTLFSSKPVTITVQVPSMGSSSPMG

[6] = molecular target: T3, FcγR2B on engineered HEK293 cells (UniProt P31994 43-310); experiment: TR-FRET on FcγR-engineered HEK293 cells
T3 construct: whole, on cells; also called FcγR2B cell line
T3 sequence (looked up): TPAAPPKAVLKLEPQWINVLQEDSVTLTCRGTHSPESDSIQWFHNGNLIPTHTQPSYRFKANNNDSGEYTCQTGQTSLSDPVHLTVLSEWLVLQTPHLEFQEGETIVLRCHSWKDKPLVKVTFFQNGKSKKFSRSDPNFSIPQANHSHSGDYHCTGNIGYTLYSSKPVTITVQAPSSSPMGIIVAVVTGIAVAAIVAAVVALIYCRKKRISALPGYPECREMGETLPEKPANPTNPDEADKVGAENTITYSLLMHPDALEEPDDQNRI

[7] = molecular target: T4, FcγR1 on engineered HEK293 cells (UniProt P12314 16-374); experiment: TR-FRET on FcγR-engineered HEK293 cells
T4 construct: whole, on cells; also called FcγR1 cell line

human CD47 on cells [8] = molecular target: T1, human CD47 on cells; experiment: cell-based or functional assay
[9] = molecular target: FcγR3A (F176) recombinant protein (human, UniProt P08637 17-208); experiment: recombinant protein, compared with control anti-RSV IgG1 antibody (p value 0.0045)
[10] = molecular target: T5, human CD47 extracellular domain (human, UniProt Q08722 19-139); experiment: SPR, human CD47 ECD; Example 4 SPR; earlier determination than the 2.32 µM of paragraph 95
T5 construct: extracellular domain; also called human CD47 ECD; Hu CD47

[11] = molecular target: T6, cynomolgus CD20 on B cells (cynomolgus monkey, UniProt M4ZHZ6 1-297); experiment: binding to cynomolgus macaque B cells
T6 construct: whole, on cells; also called cynomolgus macaque B cells
T6 sequence: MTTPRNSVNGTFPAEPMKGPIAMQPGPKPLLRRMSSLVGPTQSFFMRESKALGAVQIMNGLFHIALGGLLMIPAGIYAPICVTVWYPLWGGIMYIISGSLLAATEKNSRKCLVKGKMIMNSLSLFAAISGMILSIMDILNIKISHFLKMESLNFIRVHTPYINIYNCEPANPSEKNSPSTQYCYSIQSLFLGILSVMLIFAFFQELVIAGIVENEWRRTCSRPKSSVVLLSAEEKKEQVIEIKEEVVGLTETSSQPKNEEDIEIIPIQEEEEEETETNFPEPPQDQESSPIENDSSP

human CD20 on cells = molecular target: T7, human CD20 on cells (human, UniProt P11836 1-297); experiment: binding to Raji cells (CD20+/CD47+), y axis MFI (the legend paragraph 44 says SPR)
T7 construct: whole, on cells; also called CD20 on Raji cells and human B cells
T7 sequence (looked up): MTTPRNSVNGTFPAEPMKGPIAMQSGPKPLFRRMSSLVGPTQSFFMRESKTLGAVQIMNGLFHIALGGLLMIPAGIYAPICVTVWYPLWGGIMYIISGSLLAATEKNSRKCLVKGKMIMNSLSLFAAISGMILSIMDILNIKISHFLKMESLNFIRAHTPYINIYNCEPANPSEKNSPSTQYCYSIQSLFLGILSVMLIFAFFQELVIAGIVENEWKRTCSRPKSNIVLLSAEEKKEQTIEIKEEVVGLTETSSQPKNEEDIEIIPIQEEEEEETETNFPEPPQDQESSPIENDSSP

[12] = molecular target: T8, cynomolgus CD47 extracellular domain (cynomolgus monkey, UniProt A0A2K5X523 19-141); experiment: SPR, cynomolgus CD47
T8 construct: also called cynomolgus CD47 ECD

[13] = molecular target: T9, FcγR2A (R131) recombinant protein (human, UniProt P12318 34-217); experiment: recombinant protein, compared with control anti-RSV IgG1 antibody (p value 0.00019)
T9 sequence (looked up): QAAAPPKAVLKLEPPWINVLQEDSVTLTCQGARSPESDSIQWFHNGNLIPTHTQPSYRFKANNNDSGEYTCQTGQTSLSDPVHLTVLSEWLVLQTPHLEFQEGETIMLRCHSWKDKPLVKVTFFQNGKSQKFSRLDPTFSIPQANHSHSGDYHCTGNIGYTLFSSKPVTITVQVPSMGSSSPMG

human CD20 = molecular target: T10, human CD20 (human, UniProt P11836 1-297, limits assumed); experiment: sandwich SPR
T10 sequence (looked up): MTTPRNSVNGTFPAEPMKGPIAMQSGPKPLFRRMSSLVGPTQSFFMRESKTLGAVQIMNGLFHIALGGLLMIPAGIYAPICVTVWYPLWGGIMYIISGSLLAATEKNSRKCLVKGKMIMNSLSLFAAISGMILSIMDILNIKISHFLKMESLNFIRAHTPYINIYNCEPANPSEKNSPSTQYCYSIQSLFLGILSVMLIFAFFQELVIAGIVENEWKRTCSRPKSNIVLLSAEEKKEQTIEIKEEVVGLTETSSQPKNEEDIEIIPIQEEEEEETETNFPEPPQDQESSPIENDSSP

mouse CD47 = molecular target: T11, mouse CD47 (mouse, UniProt Q61735 19-140, limits assumed); experiment: SPR
T11 sequence (looked up): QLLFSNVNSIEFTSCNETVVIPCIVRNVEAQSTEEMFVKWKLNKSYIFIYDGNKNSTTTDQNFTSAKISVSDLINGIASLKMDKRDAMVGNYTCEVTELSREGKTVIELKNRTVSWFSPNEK

[14] = molecular target: T5, human CD47 extracellular domain; experiment: SPR, human CD47 ECD
[15] = molecular target: T8, cynomolgus CD47 extracellular domain; experiment: SPR, cynomolgus CD47 ECD
[16] = molecular target: T5, human CD47 extracellular domain; experiment: SPR, extracellular domain of human CD47

T1 sequence (Q08722 19-323): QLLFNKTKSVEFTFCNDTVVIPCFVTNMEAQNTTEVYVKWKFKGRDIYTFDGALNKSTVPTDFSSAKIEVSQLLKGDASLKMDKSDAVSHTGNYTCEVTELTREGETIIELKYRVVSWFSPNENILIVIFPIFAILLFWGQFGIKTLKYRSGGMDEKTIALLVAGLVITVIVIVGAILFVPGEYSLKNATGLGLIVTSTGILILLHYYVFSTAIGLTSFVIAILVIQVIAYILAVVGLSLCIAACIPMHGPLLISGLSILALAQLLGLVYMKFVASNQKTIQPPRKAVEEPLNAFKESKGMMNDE
T5 sequence (Q08722 19-139 limits assumed): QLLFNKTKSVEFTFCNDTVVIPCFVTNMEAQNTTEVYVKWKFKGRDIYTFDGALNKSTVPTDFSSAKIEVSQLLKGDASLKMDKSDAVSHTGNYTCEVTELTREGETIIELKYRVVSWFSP
T8 sequence (A0A2K5X523 entry or part of it limits assumed): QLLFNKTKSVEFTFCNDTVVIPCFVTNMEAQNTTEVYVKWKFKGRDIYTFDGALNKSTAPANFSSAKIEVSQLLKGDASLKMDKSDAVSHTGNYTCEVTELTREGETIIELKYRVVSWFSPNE
T4 sequence (P12314 16-374, change not shown): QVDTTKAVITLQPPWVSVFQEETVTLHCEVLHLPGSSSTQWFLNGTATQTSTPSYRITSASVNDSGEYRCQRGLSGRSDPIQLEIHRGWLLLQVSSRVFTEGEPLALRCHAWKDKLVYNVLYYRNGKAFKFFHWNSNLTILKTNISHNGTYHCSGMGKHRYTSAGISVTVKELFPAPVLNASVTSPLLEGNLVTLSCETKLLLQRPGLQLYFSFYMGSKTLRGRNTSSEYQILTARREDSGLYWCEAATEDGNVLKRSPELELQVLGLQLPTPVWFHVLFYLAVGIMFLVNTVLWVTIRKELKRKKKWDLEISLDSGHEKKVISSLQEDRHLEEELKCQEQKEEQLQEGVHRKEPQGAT
Chain of FcγR3A (F176) recombinant protein (P08637 17-208): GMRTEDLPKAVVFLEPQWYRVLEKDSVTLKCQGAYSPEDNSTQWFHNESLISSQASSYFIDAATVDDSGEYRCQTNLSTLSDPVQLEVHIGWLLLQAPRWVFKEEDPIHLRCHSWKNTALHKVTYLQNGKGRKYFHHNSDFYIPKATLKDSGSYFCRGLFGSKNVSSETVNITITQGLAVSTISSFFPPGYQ
Chain of FcγR3A (V176) recombinant protein (P08637 17-208 F176V): as the sequence (P08637 17-208) above, with F160V counted along it

B1: TPP-1360 (bispecific antibody, human IgG1, kappa)
light 1: NIQMTQSPSSLSASVGDRVTITCRASQDIHRYLSWFQQKPGKVPKHLIYRESRFVDGVPSRFSGSGSGTEFTLTISSLQPEDFATYYCLQYDEFPYTFGGGTKVEIKRTVAAPSVFIFPPSDEELKSGTASVVCWLNNFYPREAKVQWKVDNALQSGNSEESVTEQDSKDSTYSLSSTLELSKADYEKHKVYACEVTHQGLSSPVTKSFNRGEC
heavy 1: QMQLVQSGAEVKKPGSSVKVSCKASGFNIKDYYLHWVRQAPGKGLEWMGWIDPDQGDTYYAQKFQGRVTITRDRSTSTAYMELRSLRAEDTAVYYCNAAYGESSYPMDYWGQGTLVTVSSASTKGPSVFPLAPSSKSTSGGTAALGCLVKDYFPEPVTVSWNSGALTSGVHTFPAVLKSSGLYSLSSVVTVPSSSLGTQTYICNVNHKPSNTKVDKKVEPKSCDKTHTCPPCPAPELLGGPSVFLFPPKPKDTLMISRTPEVTCVVVDVSHEDPEVKFNWYVDGVEVHNAKTKPREEQYNSTYRVVSVLTVLHQDWLNGKEYKCKVSNKALPAPIEKTISKAKGQPREPQVYVLPPSREEMTKNQVSLLCLVKGFYPSDIAVEWESNGQPENNYLTWPPVLDSDGSFFLYSKLTVDKSRWQQGNVFSCSVMHEALHNHYTQKSLSLSPGK
light 2: QIVLSQSPAILSASPGEKVTMTCRASSSVSYIHWFQQKPGSSPKPWIYATSNLASGVPVRFSGSGSGTSYSLTISRVEAEDAATYYCQQWTSNPPTFGGGTKLEIKRTVAAPSVAIFPPSDERLKSGTASVVCVLNNFYPREAKVQWKVDNALQSGNSQESVTEQDSKDSTYSLSSRLTLSKADYEKHKVYACEVTHQGLSSPVTKSFNRGEC
heavy 2: QVQLQQPGAELVKPGASVKMSCKASGYTFTSYNMHWVKQTPGRGLEWIGAIYPGNGDTSYNQKFKGKATLTADKSSSTAYMQLSSLTSEDSAVYYCARSTYYGGDWYFNVWGAGTTVTVSAASTKGPSVFPLAPSSKSTSGGTAWLGCEVTDYFPEPVTVSWNSGALTSGVHTFPAVLESSGLYSLSSVVTVPSSSLGTQTYICNVNHKPSNTKVDKKVEPKSCDKTHTCPPCPAPELLGGPSVFLFPPKPKDTLMISRTPEVTCVVVDVSHEDPEVKFNWYVDGVEVHNAKTKPREEQYNSTYRVVSVLTVLHQDWLNGKEYKCKVSNKALPAPIEKTISKAKGQPREPQVYVYPPSREEMTKNQVSLTCLVKGFYPSDIAVEWESNGQPENNYKTTPPVLDSDGSFALVSKLTVDKSRWQQGNVFSCSVMHEALHNHYTQKSLSLSPGK
notes: also called CD47xCD20 bispecific; anti-CD47/anti-CD20 IgG1 1+1 heterodimer bispecific antibody
How did the EC50 (human CD47 on cells [1]) turn out when B1 was run?
The EC50 was 1.64 nM.

What about the Kd [2] of the same binder?
The Kd was 0.04 to 1620 nM.

And the EC50 (human CD47 on cells [3])?
The EC50 was 1.3 nM.

Does B1 bind [4]?
Result: binds

Does B1 bind [5]?
Result: binds

Does B1 bind [6]?
Result: binds

Does B1 bind [7]?
Result: binds

What about the “EC50 of macrophage phagocytosis of OCI-Ly3 cells, OCI-Ly3 Mφ EC50 (µg/mL) REPEAT” value (human CD47 on cells [8]) of the same binder?
The value was 0.27 µg/mL.

Does B1 bind [9]?
Result: binds

And the Kd [10]?
The Kd was 1700 nM.

Does B1 bind [11]?
Result: binds

Does B1 bind (human CD20 on cells)?
Result: binds

And the Kd [12]?
The Kd was 23000 nM.

Does B1 bind [13]?
Result: binds

Does B1 bind (human CD20)?
Result: binds

Does B1 bind (mouse CD47)?
Result: no binding

What about the “fold decrease in affinity relative to the parental anti-CD47 binder” value [14] of the same binder?
The value was ~350 fold.

What about the Kd [15] of the same binder?
Its Kd is 4510 nM.

And the Kd [16]?
The Kd was 2320 nM.

From US20230365681A1 (CELGENE, published 2023)
